Reference: patent US20090148466A1, “Process for the Preparation of Hypoallergenic Mosaic Antigens” (BIOMAY AG, priority 2003, published 2009)
Blank lines part the entries; values can stand above or below the molecule they belong to.

How the values were obtained:
[1] = test system: grass pollen allergic patients; assay: Skin prick test (immediate type skin reactions); details: standardized skin prick solution
Description: SPTs (skin prick tests) were performed on the individuals' forearms. Twenty microliter aliquots containing 5 concentrations of rPhl p 2 and of Phl p 2-derived mosaic P2M (1 μg/ml, 2 μg/ml, 4 μg/ml, 8 μg/ml, 16 μg/ml) were applied. In addition, standardized skin prick solutions (timothy grass pollen extract and histamine) (Allergopharma, Reinbeck, Germany) were tested. Reactions were recorded 20 minutes after SPT by photography and by transferring the ballpoint pen-surrounded wheal area with a scotch tape to paper. The mean wheal diameter (Dm) was calculated by measuring the maximal longitudinal and transversal diameter and dividing their sum by 2 as described by Focke et al., 2001.

[2] = Characteristics of Phl p 2-derived synthetic peptides (isoelectric point); type: physicochemical
Excerpt: Table 1: Characteristics of Phl p 2-derived synthetic peptides. […] Peptide 1 corresponds to SEQ ID NO:3, Peptide 3 corresponds to SEQ ID NO:4 and Peptide 2 corresponds to SEQ ID NO:5.

[3] = test system: Basophils from a grass pollen allergic patient; assay: Basophil histamine release; type: cell-based, human
Excerpt: (§1) The IgE binding capacity of purified Phl p 2 mosaic (P2M) was compared with that of Phl p 2 wildtype by dot blot experiments as described for the peptides using sera from twelve timothy grass pollen allergic patients (FIG. 7). […] Basophils from a grass pollen allergic patient were enriched by dextran sedimentation and exposed to increasing concentrations of purified rPhl p 2 or rPhl p 2 mosaic as described (Valent P, Besemer J, Muhm M, Majdic O; Lechner K, Bettelhei P. Interleukin 3 activates human blood basophils via high-affinity binding sites. Proc. Natl. Acad. Sci. USA 1989, 86: 5542-5546).
Histamine released in the cell free supernatants was determined in triplicates by radioimmuno assay and is expressed as mean percentage of the total histamine content of the cells as described by Valent et al.

[4] = test system: IgE antibodies in sera from grass pollen allergic patients; assay: IgE reactivity by dot blot with sera from grass pollen allergic patients; type: binding, human; details: for IgE binding capacity (dot blot): sera from 12 timothy grass pollen allergic patients
Description: The allergenic activity of the Phl p 2-derived peptides was evaluated by comparing the IgE-reactivity of complete rPhl p 2 with the peptides by dot blot analysis (FIG. 1). Nitrocellulose-dotted Phl p 2-derived peptides (P1-P3), an immunologically unrelated major grass pollen allergen, rPhl p 5 (Vrtala S, Sperr W R, Reimitzer I, van Ree R, Laffer S, Müller WD, Valent P, Lechner K, Rumpold H, Kraft D, Scheiner 0, Valenta R. cDNA cloning of a major allergen from timothy grass (Phleum pratense) pollen; characterization of the recombinant Phl p V allergen. J. Immunol. 1993, 151: 4773-4781), and for control purposes, human serum albumin as well as a control peptide were exposed to sera from grass pollen allergic patients and to serum from a non-allergic individual.
Bound IgE antibodies were detected as described previously (Valenta R, Duchêne M, Ebner C, Valent P, Sillaber C, Deviller P, Ferreira F, Tejkl M, Edelmann H, Kraft D, Scheiner O. Profilins constitute a novel family of functional plant pan-allergens. J. Exp. Med. 1992, 175: 377-385).
as §1

[5] = test system: serum IgE; details: cited from earlier work

mean wheal diameter ([1]; Individual 1): 8 mm
mean wheal diameter ([1]; Individual 2): 8 mm
Molecule: NCCc1c[nH]cn1 [Histamine, histamine]

Molecule: Peptide 2: synthetic Phl p 2-derived peptide; Table 1 prints aa 65-96, SEQ ID NO:4; text says aa 34-64 (REHGSDEWVAMTKGEGGVWTFDSEEPLQGPFNC) [synthetic Phl p 2-derived peptide; text says aa 34-64]
Isoelectric point [2]: 4.03

Molecule: Peptide 3: synthetic Phl p 2-derived peptide; Table 1 prints aa 34-64, SEQ ID NO:5; text says aa 65-96 (CFRFLTEKGMKNVFDDVVPEKYTIGATYAPEE) [synthetic Phl p 2-derived peptide; text says aa 65-96]
Isoelectric point [2]: 4.45

B1: P2M: recombinant his-tagged mosaic protein: the three Phl p 2-derived peptides recombined in altered order 1, 3, 2 (SEQ ID NO:1) (protein)
chain: MVPKVTFTVEKGSNEKHLAVLVKYEGDTMAEVELFRFLTEKGMKNVFDDVVPEKYTIGATYAPEEREHGSDEWVAMTKGEGGVWTFDSEEPLQGPFNHHHHHH
modifications: His tag
reduced allergenic activity compared to the rPhl p 2 allergen ([3]; basophil histamine release): more than 1000 fold
IgE binding capacity (dot blot) [4]: no serum exhibited IgE reactivity

B2: rPhl p 2: recombinantly produced wild type timothy grass pollen allergen Phl p 2, his-tagged (protein)
chain: MVPKVTFTVEKGSNEKHLAVLVKYEGDTMAEVELREHGSDEWVAMTKGEGGVWTFDSEEPLQGPFNFRFLTEKGMKNVFDDVVPEKYTIGATYAPEEHHHHHH
concentration of maximal histamine release ([3]; basophils from a grass pollen allergic patient): 10^−3 μg/ml
share of grass pollen allergic individuals whose serum IgE reacts [5]: about 70%
IgE reactivity (dot blot) ([4]; nitrocellulose-dotted, sera from 35 grass pollen allergic patients): Sera from all 35 grass pollen allergic patients showed IgE reactivity
IgE binding capacity (dot blot) [4]: Sera from all 12 grass pollen allergic patients contained IgE antibodies against rPhl p 2
